Measurements from publication PMC6136799, “The Npa1p complex chaperones the assembly of the earliest eukaryotic large ribosomal subunit precursor” (PLoS Genetics, 2018).

Key:
[1] = molecular target: T1, GST-Npa1p (S. cerevisiae, UniProt P34241 1-1764); assay: pull-down; 2 μg GST-tagged protein on glutathione magnetic beads, 2 μg His-Dbp6p in 200 μl IP buffer (50 mM Tris-HCl pH 8, 150 mM potassium chloride, 5 mM magnesium chloride, 0.2% Nonidet P-40), 1 h at 16°C; Western with anti-His; also after RNase A treatment; settings: both partners purified
T1 construct: Npa1p, S. cerevisiae; NPA1 ORF inserted into XhoI-digested pGEX-6P1 (plasmid pRC59); source: E. coli Rosetta λDE3, purified (Glutathione Sepharose 4 FF)

[2] = molecular target: T2, GST-Npa2p (S. cerevisiae, UniProt P47108 1-1174); assay: as above; settings: both partners purified
T2 construct: Npa2p, S. cerevisiae; NPA2 ORF inserted into XhoI-digested pGEX-6P1 (plasmid pRC58); source: E. coli Rosetta λDE3, purified (Glutathione Sepharose 4 FF)
T2 sequence (looked up): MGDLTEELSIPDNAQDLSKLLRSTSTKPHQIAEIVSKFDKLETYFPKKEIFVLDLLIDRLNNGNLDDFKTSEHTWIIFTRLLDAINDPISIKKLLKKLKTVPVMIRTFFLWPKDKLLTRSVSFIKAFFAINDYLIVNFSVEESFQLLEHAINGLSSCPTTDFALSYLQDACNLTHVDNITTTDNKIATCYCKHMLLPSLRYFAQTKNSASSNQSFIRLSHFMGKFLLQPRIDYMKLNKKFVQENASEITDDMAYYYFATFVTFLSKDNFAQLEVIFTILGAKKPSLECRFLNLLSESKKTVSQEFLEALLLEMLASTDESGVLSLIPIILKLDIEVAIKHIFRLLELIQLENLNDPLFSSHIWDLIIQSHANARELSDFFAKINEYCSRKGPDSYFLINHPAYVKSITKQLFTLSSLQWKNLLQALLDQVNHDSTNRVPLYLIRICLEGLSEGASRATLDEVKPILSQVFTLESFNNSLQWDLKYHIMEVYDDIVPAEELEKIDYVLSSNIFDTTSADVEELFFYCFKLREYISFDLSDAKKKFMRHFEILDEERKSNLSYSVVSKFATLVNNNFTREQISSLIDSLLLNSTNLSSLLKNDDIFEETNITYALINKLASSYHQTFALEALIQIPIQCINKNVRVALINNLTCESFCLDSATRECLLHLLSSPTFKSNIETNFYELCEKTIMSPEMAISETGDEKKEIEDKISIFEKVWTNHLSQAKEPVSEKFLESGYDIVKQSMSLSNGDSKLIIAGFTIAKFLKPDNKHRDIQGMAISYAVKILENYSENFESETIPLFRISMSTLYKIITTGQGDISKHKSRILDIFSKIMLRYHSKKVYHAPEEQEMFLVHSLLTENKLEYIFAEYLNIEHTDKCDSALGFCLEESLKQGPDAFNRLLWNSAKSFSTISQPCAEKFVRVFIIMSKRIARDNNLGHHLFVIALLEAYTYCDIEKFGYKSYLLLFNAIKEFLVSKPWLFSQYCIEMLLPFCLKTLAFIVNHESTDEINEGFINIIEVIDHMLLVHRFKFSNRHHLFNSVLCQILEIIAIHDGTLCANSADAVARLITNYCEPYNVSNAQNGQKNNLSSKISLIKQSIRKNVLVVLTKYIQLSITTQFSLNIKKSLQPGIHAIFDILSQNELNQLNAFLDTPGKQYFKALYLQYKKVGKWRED

T1 sequence (P34241 whole entry): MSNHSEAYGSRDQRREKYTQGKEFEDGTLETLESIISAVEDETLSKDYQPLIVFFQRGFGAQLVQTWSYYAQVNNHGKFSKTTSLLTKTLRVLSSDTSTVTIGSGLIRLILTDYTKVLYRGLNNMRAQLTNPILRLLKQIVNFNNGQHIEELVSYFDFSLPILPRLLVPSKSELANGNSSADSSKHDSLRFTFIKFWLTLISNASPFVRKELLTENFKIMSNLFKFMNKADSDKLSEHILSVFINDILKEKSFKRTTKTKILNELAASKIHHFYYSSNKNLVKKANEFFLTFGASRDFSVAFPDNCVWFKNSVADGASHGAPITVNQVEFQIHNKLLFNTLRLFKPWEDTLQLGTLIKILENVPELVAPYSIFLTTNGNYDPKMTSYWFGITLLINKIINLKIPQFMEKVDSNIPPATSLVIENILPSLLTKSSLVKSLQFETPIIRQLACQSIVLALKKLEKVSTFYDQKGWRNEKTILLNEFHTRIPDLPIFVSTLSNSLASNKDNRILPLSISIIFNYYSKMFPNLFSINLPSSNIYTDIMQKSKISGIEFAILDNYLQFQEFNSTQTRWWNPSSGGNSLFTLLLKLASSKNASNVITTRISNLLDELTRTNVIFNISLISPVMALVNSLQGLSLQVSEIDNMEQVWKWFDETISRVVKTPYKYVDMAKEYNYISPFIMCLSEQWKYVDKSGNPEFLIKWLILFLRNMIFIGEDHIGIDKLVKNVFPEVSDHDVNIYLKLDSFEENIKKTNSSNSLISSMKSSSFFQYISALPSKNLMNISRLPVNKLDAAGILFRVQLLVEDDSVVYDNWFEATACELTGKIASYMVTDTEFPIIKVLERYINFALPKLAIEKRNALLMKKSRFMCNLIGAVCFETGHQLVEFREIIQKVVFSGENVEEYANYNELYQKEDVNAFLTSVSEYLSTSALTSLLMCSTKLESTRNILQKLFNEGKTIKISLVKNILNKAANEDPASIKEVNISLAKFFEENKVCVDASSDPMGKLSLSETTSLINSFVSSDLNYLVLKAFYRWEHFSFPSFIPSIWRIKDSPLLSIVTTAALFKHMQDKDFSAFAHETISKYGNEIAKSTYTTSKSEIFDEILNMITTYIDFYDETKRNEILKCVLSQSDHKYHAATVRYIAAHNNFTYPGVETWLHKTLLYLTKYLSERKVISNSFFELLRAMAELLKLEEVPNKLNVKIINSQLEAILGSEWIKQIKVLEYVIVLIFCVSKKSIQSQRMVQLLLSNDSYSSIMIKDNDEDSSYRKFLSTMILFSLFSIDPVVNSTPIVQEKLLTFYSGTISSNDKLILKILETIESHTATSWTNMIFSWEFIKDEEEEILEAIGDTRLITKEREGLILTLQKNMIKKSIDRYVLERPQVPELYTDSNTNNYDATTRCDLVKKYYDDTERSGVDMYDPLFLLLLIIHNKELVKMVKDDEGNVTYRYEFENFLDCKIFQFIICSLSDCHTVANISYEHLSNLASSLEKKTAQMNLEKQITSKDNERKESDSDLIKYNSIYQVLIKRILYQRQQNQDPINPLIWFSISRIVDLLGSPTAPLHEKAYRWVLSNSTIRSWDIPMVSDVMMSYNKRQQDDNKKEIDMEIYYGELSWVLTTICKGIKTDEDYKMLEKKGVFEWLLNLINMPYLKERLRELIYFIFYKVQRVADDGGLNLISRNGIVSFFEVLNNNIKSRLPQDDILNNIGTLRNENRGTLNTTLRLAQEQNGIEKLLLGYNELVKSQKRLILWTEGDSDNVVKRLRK

B1: His-Dbp6p (natural protein, S. cerevisiae, UniProt P53734 1-629, looked up)
chain: MFASRFDPSQLTAPAASAPEGIVGTTPPAIVPLKRQATESDNEEYGSHQDSDESSNSSSEEDEDRMQVDYGASEEDSSEVEEEESKPSTHSTVLSRFKQTVSLQERLGASDIAESKEDEGIEDEAASTHQLKQIPQPEFVKNPMNLNTNSLQFKSTGWLNTEKIYYDNSLIKPFSDYANELEAKLLQNICKNFSTNTFPIQSIILDSILPVLNFTLNVSKRNFTRRIGDILVNAATGSGKTLAYSIPIVQTLFKRQINRLRCIIIVPTKLLINQVYTTLTKLTQGTSLIVSIAKLENSLKDEHKKLSNLEPDILITTPGRLVDHLNMKSINLKNLKFLIIDEADRLLNQSFQGWCPKLMSHLKTDKLDTLPGNVIKMIFSATLTTNTEKLNGLNLYKPKLFLKQTDKLYQLPNKLNEFNINIPTAKSVYKPLILLYSICQFMAHSPIAAKILIFVKSNESSIRLSKLLQLICESRSQSSVLKNLQNLAVSINSVNSNNSKAENKKIVANFSHHSESAGITILITTDIMSRGIDINDITQVINYDPPMSSQQYVHRVGRTARANELGSAYNLLVGRGERTFFDDLNKDLDRDGKSVQPLELDFTLLESDSELYTSSLESLKNYHNNTAQA
notes: Dbp6p, S. cerevisiae; DBP6 ORF cloned into a modified pET-15b (plasmid pET-DBP6); also called His-tagged Dbp6p; source: E. coli Rosetta λDE3, purified (HisTrap FF, Superdex 200)
B1: binds [1]; binds [2].
